Where two headings read alike, the source gives them in different places.
What was measured:
[1] = target: T1, recombinant biotinylated monomeric Fc fusion of human Folate Receptor 1 (huFolR1 ECD-AcTev-Fcknob-Avi tag … (human, UniProt P0DOX5 223-449 = IgG part, biotin on the C-terminal Avi tag)); experiment: SPR Biacore, avidity (bivalent, apparent KD), antigen-Fc on SA chip
T1 construct: also called huFolR1-Fc; human FolR1-Fc
Protocol: (§1) The avidity of the interaction between the anti-FolR1 IgGs or T cell bispecifics and the recombinant folate receptors was determined as described below (Table 41).
(§2) Recombinant biotinylated monomeric Fc fusions of human, cynomolgus and murine Folate Receptor 1 (FolR1-Fc) were directly coupled on a SA chip using the standard coupling instruction (Biacore, Freiburg/Germany). The immobilization level was about 300. […] The dissociation was monitored for 240 or 600 seconds. Bulk refractive index differences were corrected for by subtracting the response obtained on reference flow cell immobilized with recombinant biotinylated murine IL2 receptor Fc fusion. The binding curves resulting from the bivalent binding of the IgG or T cell bispecifics were approximated to a 1:1 Langmuir binding (even though it is a 1:2 binding) and fitted with that model to get an apparent KD representing the avidity of the bivalent binding. The apparent avidity constants for the interactions were derived from the rate constants of the fitting using the Bia Evaluation software (GE Healthcare). For low affinity kinetics with association and dissociation phases too fast to be fitted by the 1:1 Langmuir binding model, the steady state analysis model was applied using the Bia Evaluation software (GE Healthcare). The steady state analysis gives the KD of the binding reaction at equilibrium.

[2] = target: T2, recombinant biotinylated monomeric Fc fusion of cynomolgus Folate Receptor 1 (cy FolR1 ECD-AcTev-Fcknob-Avi … (cynomolgus, UniProt P0DOX5 223-449 = IgG part, biotin on the C-terminal Avi tag)); experiment: as above
T2 construct: also called cyFolR1-Fc; cyno FolR1
Protocol: as §1, §2

[3] = target: T1, recombinant biotinylated monomeric Fc …; experiment: SPR Biacore, affinity (monovalent), antibody captured via anti-Fab, steady state
Protocol: The affinity of the interaction between the anti-FolR1 IgGs or the T cell bispecifics and the recombinant folate receptors was determined as described below (Table 42).
For affinity measurement, direct coupling of around 10000 resonance units (RU) of the anti-human Fab specific antibody (Fab capture kit, GE Healthcare) was performed on a CM5 chip at pH 5.0 using the standard amine coupling kit (GE Healthcare). Anti-FolR1 IgGs or T cell bispecifics were captured at 200 nM with a flow rate of 10 ul/min for 40 sec, the reference flow cell was left without capture. Dilution series (12.35 to 3000 nM) of human Folate Receptor 1 Fc fusion were passed on all flow cells at 30 μl/min for 240 sec to record the association phase. The dissociation phase was monitored for 300 s and triggered by switching from the sample solution to HBS-EP. The chip surface was regenerated after every cycle using a double injection of 60 sec 10 mM Glycine-HCl pH 1.5. Bulk refractive index differences were corrected for by subtracting the response obtained on the reference flow cell 1. […]

[4] = target: T3, human FolR1 expressed on cells (HeLa, SKOV3, HT-29, transfected HEK cells) (human, UniProt P15328 25-234); experiment: cell-based or functional assay
[5] = target: T3, human FolR1 expressed on cells (HeLa, …); experiment: cell-based or functional assay; remark: listed apart in the source
[6] = target: T1, recombinant biotinylated monomeric Fc …; experiment: SPR Biacore, avidity (bivalent)
[7] = target: T1, recombinant biotinylated monomeric Fc …; experiment: SPR Biacore, affinity (monovalent)
[8] = target: T4, recombinant biotinylated monomeric Fc fusion of murine Folate Receptor 1 (mu FolR1 ECD-AcTev-Fcknob-Avitag … (murine, UniProt P0DOX5 223-449 = IgG part, biotin on the C-terminal Avi tag)); experiment: SPR Biacore, single injection on immobilized antigen-Fc
T4 construct: also called muFolR1-Fc; murine FolR1
Protocol: (§3) All SPR experiments were performed on a Biacore T200 at 25° C. with HBS-EP as running buffer (0.01 M HEPES pH 7.4, 0.15 M NaCl, 3 mM EDTA, 0.005% Surfactant P20, Biacore, GE Healthcare). The molecules used for affinity and avidity determination are described in Table 45.
(§4) First the anti-FolR1 TCBs were analyzed by single injections (Table 46) to characterize their crossreactivity (to human, murine and cyno FolR1) and specificity (to human FolR1, human FolR2, human FolR3). Recombinant biotinylated monomeric Fc fusions of human, cynomolgus and murine Folate Receptor 1 (FolR1-Fc) or human Folate Receptor 2 and 3 (FolR2-Fc, FolR3-Fc) were directly coupled on a SA chip using the standard coupling instruction (Biacore, Freiburg/Germany). The immobilization level was about 300-400 RU. The TCBs were injected for 60 seconds at a concentration of 500 nM.

[9] = target: T5, recombinant biotinylated monomeric Fc fusion of human Folate Receptor 2 (hu FolR2 ECD-AcTev-Fcknob-Avi tag … (human, UniProt P0DOX5 223-449 = IgG part, biotin on the C-terminal Avi tag)); experiment: as above
T5 construct: also called FolR2-Fc
Protocol: as §3, §4

[10] = target: T6, recombinant biotinylated monomeric Fc fusion of human Folate Receptor 3 (hu FolR3 ECD-AcTev-Fcknob-Avi tag … (human, UniProt P0DOX5 223-449 = IgG part, biotin on the C-terminal Avi tag)); experiment: as above
T6 construct: also called FolR3-Fc
Protocol: as §3, §4

[11] = target: T1, recombinant biotinylated monomeric Fc …; experiment: SPR Biacore, avidity (bivalent, apparent KD), antigen-Fc on SA chip; remark: listed apart in the source
[12] = target: T2, recombinant biotinylated monomeric Fc …; experiment: as above; remark: listed apart in the source
[13] = target: T1, recombinant biotinylated monomeric Fc …; experiment: SPR Biacore, affinity (monovalent), antibody captured via anti-Fab, steady state analysis
Protocol: as §3
(§5) For affinity measurement, direct coupling of around 12000 resonance units (RU) of the anti-human Fab specific antibody (Fab capture kit, GE Healthcare) was performed on a CM5 chip at pH 5.0 using the standard amine coupling kit (GE Healthcare). Anti-FolR1 T cell bispecifics were captured at 20 nM with a flow rate of 10 μl/min for 40 sec, the reference flow cell was left without capture. […] The dissociation phase was monitored for 300 s and triggered by switching from the sample solution to HBS-EP. The chip surface was regenerated after every cycle using a double injection of 60 sec 10 mM Glycine-HCl pH 2.1. Bulk refractive index differences were corrected for by subtracting the response obtained on the reference flow cell 1. The affinity constants for the interactions were derived from the rate constants by fitting to a 1:1 Langmuir binding using the Bia Evaluation software (GE Healthcare). For low affinity kinetics with association and dissociation phases too fast to be fitted by the 1:1 Langmuir binding model, the steady state analysis model was applied using the Bia Evaluation software (GE Healthcare). The steady state analysis gives the KD of the binding reaction at equilibrium.

[14] = target: T2, recombinant biotinylated monomeric Fc …; experiment: as above
Protocol: as §3, §5

T3 sequence (P15328 25-234): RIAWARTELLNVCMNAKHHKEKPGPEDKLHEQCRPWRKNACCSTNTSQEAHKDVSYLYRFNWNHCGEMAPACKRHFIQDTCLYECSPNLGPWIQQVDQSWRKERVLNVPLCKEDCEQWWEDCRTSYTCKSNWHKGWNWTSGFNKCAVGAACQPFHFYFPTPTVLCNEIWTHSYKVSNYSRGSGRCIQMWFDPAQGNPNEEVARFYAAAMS

B1: 16D5 IgG variant W98Y/wt (HC/LC) (antibody, V domains shown)
VH: not shown
VL: QAVVTQEPSLTVSPGGTVTLTCGSSTGAVTTSNYANWVQEKPGQAFRGLIGGTNKRAPGTPARFSGSLLGGKAALTLSGAQPEDEAEYYCALWYSNLWVFGGGTKLTVL
notes: IgG
Kd [1]: 240 nM
koff [1]: 0.0328 s⁻¹
kon [1]: 136000 M⁻¹ s⁻¹
Kd [2]: 200 nM
koff [2]: 0.0361 s⁻¹
kon [2]: 171000 M⁻¹ s⁻¹
Kd [3]: 5400 nM

B2: 16D5 W96Y/D52E TCB (2+1 inverted, common light chain) (bispecific antibody)
heavy 1: not shown
heavy 2: not shown
light: QAVVTQEPSLTVSPGGTVTLTCGSSTGAVTTSNYANWVQEKPGQAFRGLIGGTNKRAPGTPARFSGSLLGGKAALTLSGAQPEDEAEYYCALWYSNLWVFGGGTKLTVLGQPKAAPSVTLFPPSSEELQANKATLVCLISDFYPGAVTVAWKADSSPVKAGVETTTPSKQSNNKYAASSYLSLTPEQWKSHRSYSCQVTHEGSTVEKTVAPTECS
EC50 of T-cell killing of Hela, 24 h [4]: 0.0013 nM
EC50 of T-cell killing of SKov-3, 24 h [4]: 0.235 nM
EC50 of T-cell killing of HT-29, 48 h [5]: 0.399 nM
EC50 of T-cell killing of Hela, 48 h [5]: 0.0009 nM
EC50 of T-cell killing of SKov-3, 48 h [5]: 0.093 nM
fold lower avidity than 16D5 WT (3 nM) [6]: 3 fold
fold lower affinity than 16D5 WT (57 nM) [7]: 24.5 fold
binding result [8]: no binding (tested: 500 nM)
binding result [9]: no binding (tested: 500 nM)
binding result [10]: no binding (tested: 500 nM)
Kd [11]: 10 nM
koff [11]: 0.0014 s⁻¹
kon [11]: 124000 M⁻¹ s⁻¹
Kd [12]: 30 nM
koff [12]: 0.0141 s⁻¹
kon [12]: 517000 M⁻¹ s⁻¹
Kd [13]: 1400 nM
Kd [14]: 5600 nM

Reference: US20220220224A1 (Hoffmann-La Roche, published 2022)
